Source: US20240139251A1 (CYTOARM, published 2024)

Legend:
[1] = target: T1, prostate specific membrane antigen (PSMA) on LNCaP cells (human, UniProt Q04609 1-750); test: cell-based or functional assay
[2] = target: T1, prostate specific membrane antigen …; test: cell-based or functional assay; remark: listed apart in the source

Binder | Cell killing of LNCaP cells by T cells of Example 2 further modified with BsAb, E/T ratio 10:1 [1] | Cytotoxicity on LNCaP cells of T cells differentiated by BsAb, E/T ratio 5:1 [1] | Cytotoxicity on LNCaP cells of T cells differentiated by BsAb, E/T ratio 10:1 [1] | Cytotoxicity on LNCaP cells of T cells differentiated by and further modified with BsAb, E/T ratio 5:1 [1] | Cytotoxicity on LNCaP cells of T cells differentiated by and further modified with BsAb, E/T ratio 10:1 [1] | Cytotoxic effect of BsAb T cells on LNCaP cells, Effect cell/Target cell 3:1 [2] | Cytotoxic effect of BsAb T cells on LNCaP cells, Effect cell/Target cell 5:1 [2] | Cytotoxic effect of BsAb T cells on LNCaP cells, Effect cell/Target cell 10:1 [2] | Cell killing of LNCaP cells by murine OKT3 T cells modified with BsAb, E/T ratio 10:1 [1]
anti-CD3 Fab/anti-PSMA scFv BsAb (bispecific antibody, not shown: small tags and cut ends) light: not shown heavy (part 1 of 2): not shown heavy (part 2 of 2): GGGSGGGEVQLVQSGAEVKKPGASVKISCKTSGYTFTEYTIHWVKQASGKGLEWIGNINPNNGGTTYNQKFEDRATLTVDKSTSTAYMELSSLRSEDTAVYYCAAGWNFDYWGQGTTVTVSSAGGGGSGGGGSGGGGSDIVMTQSPSSLSASVGDRVTITCKASQDVGTAVDWYQQKPGKAPKLLIYWASTRHTGVPDRFTGSGSGTDFTLTISSLQPEDFADYFCQQYNSYPLTFGGGTKLEIKRHHHHHH | > 90% | ~51.3% | ~61% | ~78.2% | ~81.8% | 30.3% | 62.6% | 82.2% | –
anti-CD3 knob/anti-PSMA hole BsAb (bispecific antibody) light 1: not shown heavy 1: not shown light 2: RIVMTQSPSSLSASVGDRVTITCKASQDVGTAVDWYQDKPGKAPKLLIYWASTRHTGVPDRFTGSGSGTDFTLTISSLQPEDFADYFCQQYNSYPLTFGGGTKLEIKRTVAAPSVFIFPPSDEQLKSGTASVVCYLNNFYPREAKVQWKVDNALQSGNSQESVTEQDSKDSTYSLWSTLTLSKADYEKHKLYACEVTHQGLSSPVTKSFNRGECGGGSYPYDVPDYA heavy 2: not shown | > 90% | – | – | – | – | 43.1% | 58.6% | 70.4% | –
anti-PSMA Fab/anti-CD3 scFv BsAb (bispecific antibody, not shown: small tags and cut ends) light: DIVMTQSPSSLSASVGDRVTITCKASQDVGTAVDWYQQKPGKAPKLLIYWASTRHTGVPDRFTGSGSGTDFTLTISSLQPEDFADYFCQQYNSYPLTFGGGTKLEIKRTVAAPSVFIFPPSDEQLKSGTASVVCLLNNFYPREAKVQWKVDNALQSGNSQESVTEQDSKDSTYSLSSTLTLSKADYEKHKLYACEVTHQGLSSPVTKSFNRGEC heavy (part 1 of 2): EVQLVQSGAEVKKPGASVKISCKTSGYTFTEYTIHWVKQASGKGLEWIGNINPNNGGTTYNQKFEDRATLTVDKSTSTAYMELSSLRSEDTAVYYCAAGWNFDYWGQGTTVTVSSASTKGPSVFPLAPSSKSTSGGTAALGCLVKDYFPEPVTVSWNSGALTSGVHTFPAVLQSSGLYSLSSVVTVPSSSLGTQTYICNVNHKPSNTKVDKRVEPKSCDK heavy (part 2 of 2): not shown | > 90% | – | – | – | – | 64.8% | 87% | 97.3% | ~100%
anti-PSMA scFv/anti-CD3 scFv BsAb (bispecific antibody, not shown: small tags and cut ends) chain (part 1 of 2): DIVMTQSPSSLSASVGDRVTITCKASQDVGTAVDWYQQKPGKAPKLLIYWASTRHTGVPDRFTGSGSGTDFTLTISSLQPEDFADYFCQQYNSYPLTFGGGTKLEIKRGGGGSGGGGSGGGGSEVQLVQSGAEVKKPGASVKISCKTSGYTFTEYTIHWVKQASGKGLEWIGNINPNNGGTTYNQKFEDRATLTVDKSTSTAYMELSSLRSEDTAVYYCAAGWNFDYWGQGTTVTVSSA chain (part 2 of 2): not shown | > 90% | – | – | – | – | 53.8% | 83.4% | 97.6% | –
